# Measured values: the nanobody polyreactivity screen of Harvey et al. (2022)
# Assay: yeast display, Sf9 membrane polyspecificity reagent, FACS + sequencing; frameworks hold sequencing errors
# Procedure, shortened: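 After 36–48 hours of galactose induction, yeast (Saccharomyces cerevisiae BJ5465) displaying a synthetic nanobody library were stained at 4 °C for 1 hour with 10% biotinylated, detergent-solubilized Sf9 membrane reagent. Streptavidin microbeads enriched the stained cells before FACS sorting into low and high (top ~1%) gates on anti-HA and streptavidin fluorescence. Each clone's polyreactivity label reflects its gate of origin.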
row,Sequence,polyreactivity (PSR sort gate)
1,QVQLVESGGGLVQAGGSLRLSCAASGSIFDVYTMGWYRQAPGKVRELVAAINTGGGSTYYADSVMGRFTISRDNAKNTVYLEMNSLKPEDTAVYYCAASVYHYGPLYYWGEGTQVTVSS,low polyreactivity
2,QVQLVESGGGLVQAGGSLRLSCAASGSIFDWNAMGWYRQAPGKERELVATISWDGGSTYYADSVKGRFTISRDNSKNTVYLQMNSLKPEDTAVYYCATVFTGKPAYYARTKYDYWGQGTQVTVSS,low polyreactivity
3,QVQLVESGGGLVQAGGSLRLSCAASGSIFDWYAMGWYRKAPGTERELVAAINEGGGSTYYADSVKGRFTISRDNAKNTVYLQMNSLKPEDTAVYYCAAGDYYLQDNYWGQGTQVTVSS,low polyreactivity
4,QVQLVESGGGLVQAGGSLRLSCAASGSIFDYNAMGWYRQAPGKERELVAAITSGTSTNYADSVKGRFTISRDNAKNTVYLQMNSLKPEDTAVYYCAADPVWAYDYWGQGTQVTVSS,low polyreactivity
5,QVQLVESGGGLVQAGGSLRLSCAASGSIFDYNAMGWYRQAPGKERELVAAITYSGGTTYADSVKGRFTISRDNAKNTVYLQMNSLKPEDTAVYYCAATSYARFAYYYWGQGTQVTVSS,low polyreactivity
6,QVQLVESGGGLVQAGGSLRLSCAASGSIFDYYAMGWYRQAPGKERELVAAINISGGDTYYADSVKGRFTISRDNAKNTVYLQMNSLKPEDTAVYYCAADWVTWWFSRVGWDYGYWGQGTQVTVSS,low polyreactivity
7,QVQLVESGGGLVQAGGSLRLSCAASGSIFDYYAMGWYRQAPGKERELVAAISNGRTTNYADSVKGRFTISRDNAKNTVYLQMNSLKPEDTAVYYCNADSALYDKAVIYSEYDYWGQGTQVTVSS,low polyreactivity
8,QVQLVESGGGLVQAGGSLRLSCAASGSIFDYYAMGWYRQAPGKERELVAAISSSGDTTYYADSVKGRFTISRDTAKNTVYLQMNSLKPEDTAVYYCAARVRGYRHASNYYWGQGTQVTVSS,high polyreactivity
9,QVQLVESGGGLVQAGGSLRLSCAASGSIFDYYAMGWYRQAPGKERELVAAISTSTSSTYYADSVKGRFTISRDNAKNTVYFQMNSLKPEDTAVYYCAAEGESQPESPGYDYWGQGTQVTVSS,low polyreactivity
10,QVQLVESGGGLVQAGGSLRLSCAASGSIFEENAMGWYRQAPGKERELVAAINTRGGSTYYADSVKGRFTLSRDNAKNTVYLQMNSLKPEDTAVYYCALISRYYYWGQGTQVTVSS,high polyreactivity
11,QVQLVESGGGLVQAGGSLRLSCAASGSIFEENAMGWYRQAPGKERELVAAITIGGRTNYADSVYGRFTISRDNAKNTVYLQMNSLKPEDTAVYYCAADLSSNKYWRFWTRYYYWGQGTQVTVSS,low polyreactivity
12,QVQLVESGGGLVQAGGSLRLSCAASGSIFEEYAMGWYRQAPGKERELVARIDESGGSTYYADSVKGRFTISRDNAKNTVYLQMHSLKPEDSAVYYCAAVVTAQAYAYFTYGYDYWGQGTQVTVSS,low polyreactivity
13,QVQLVESGGGLVQAGGSLRLSCAASGSIFEEYAMGWYRQAPGKERELVARIDESGGSTYYADSVKGRFTISRDTAKNTVYLQMNSLKPEDTAVYYCAAERYSDSWGYYSVDEGSWEMDYWGQGTQVTVSS,low polyreactivity
14,QVQLVESGGGLVQAGGSLRLSCAASGSIFEGYAMGWYRQAPGKERELVADITSGGSTYYADSVKGRFTISRDNAKNTVYLQMNSLKPEDNAVYYCNRDYHWIELVYPDDRREYDYWGQGTQVTVSS,low polyreactivity
15,QVQLVESGGGLVQAGGSLRLSCAASGSIFEGYVMGWYRQAPGKERELVAGISRGSRTNYADSVKGRFTISRDNAKNTVYLQMNSLKPEDTAVYYCAAEYWGVYRGFVSSFDYWGQGTQVTVSS,high polyreactivity
16,QVQLVESGGGLVQAGGSLRLSCAASGSIFEIYAMGWYRQAPGKERELVAAISWSGGRTYYADSVKGRFTISRDNAKNTVYLQMNSLKPEDTAVYYCNAGQWRYPGLYYYWGQVTQVTVSS,high polyreactivity
17,QVQLVESGGGLVQAGGSLRLSCAASGSIFELNAMGWYRQAPGKERELVAAITSSGSSTYYADSVKGRFTISRDNAKNTVYLQMNSLKPEDTAVYYGFRPHDYWGQGTQVTVSS,low polyreactivity
18,QVQLVESGGGLVQAGGSLRLSCAASGSIFEPNAKGWYRQAPGKERELVAVINYSGGSTYYADSVKGRFTISRDNAKNTVYLQMNSLKPEDTAVYYCAASHYHYRYGTPQPEYNYWGQGTQVTVSS,low polyreactivity
19,QVQLVESGGGLVQAGGSLRLSCAASGSIFEPNAMGWYRQAPGKERELVAAISSGGSTYYADSVKGRFTISRDNAKNTVYLQMNSLKPEDTAVYYCAAYYHGYYSWGQGTQVTVSS,high polyreactivity
20,QVQLVESGGGLVQAGGSLRLSCAASGSIFEPYTMGWYRQAPGKERELVAAITGSGGSTFYADSVKGRFTISRDNAKNTVYLQMNSLKPEDTAVYYCNAFAYPYTDVDYWGQGTQVTVSS,low polyreactivity
21,QVQLVESGGGLVQAGGSLRLSCAASGSIFEPYVMGWYRQAPGKERELVAAIRQTGGSTYYADSVKGRFTISRDNAKNTVYLQMNSLKPEDTAVYYCAAVYLYYSRSDLYDYWGQGTQVTVSS,low polyreactivity

row,Sequence,polyreactivity (PSR sort gate)
1,QVQLVESGGGLVQAGGSLRLSCAASGSIFERYAMGWYRQAPGKERELVATISKSGDSTYYADSVKGRFTISRDNAKNTVYLQMNSQKPEDTAVYYCAADGWSETSDATFYYWGQGTQVTVSS,low polyreactivity
2,QVQLVESGGGLVQAGGSLRLSCAASGSIFESNDMGWYRQAPGKERELVAAYADSVKGRFTISRDNAKNTVYLQMNSLKPEDTAVYYCAKSLSLYVVPLYEYWGQGTQVTVSS,low polyreactivity
3,QVQLVESGGGLVQAGGSLRLSCAASGSIFESYAMGWYRQAPGKERELVADITYDGGITYYADSVKGRFTISRDNAKNTVYLQMNSLKPEDTADYYCNADSVQYTPPESDYWGQGTQVTVSS,low polyreactivity
4,QVQLVESGGGLVQAGGSLRLSCAASGSIFESYAMGWYRQAPGKERELVADITYDGGITYYADSVKGRFTISRDNAKNTVYLQMNSLKPEDTAVYYCATEYRYWQSDYSTYFPYDYWGQGTQVTVSS,low polyreactivity
5,QVQLVESGGGLVQAGGSLRLSCAASGSIFETYDMGWYRQAPGKERELVAAITLSGGSTYYADSVKGRFTISRDNAKNTVYLQMNSLKPEDTAVYYCAADDSGVKVWEGDYWGQGTQVTVSS,low polyreactivity
6,QVQLVESGGGLVQAGGSLRLSCAASGSIFETYVMGWYRQAPGKERELVAAINSGGSTNYADSVKGRFTISRDNAKNTVYLQMNSLKPEDTAVYYCAAEWRGDRYRLYVVSWWYDYWGQGTQVTVSS,low polyreactivity
7,QVQLVESGGGLVQAGGSLRLSCAASGSIFEVNAMGWYRQAPGKERELVAAISCSGGSTYYADSVKGRFTISRDNAKNTVYLQMNSLKPEDTAVYYCAADWRQGLWYGYYYWGQGTQVTVSS,low polyreactivity
8,QVQLVESGGGLVQAGGSLRLSCAASGSIFEWYAMGWYRQAPGKERELVADITNNGGSTYYADSVKGRFTISRDNAKNTVYLQMNSLKPEDTAVYYCAADYFDQVPDYYYASEYGYWGQGTQVTVSS,low polyreactivity
9,QVQLVESGGGLVQAGGSLRLSCAASGSIFEYNTMGWYRQAPGKERELVATISWSGDSTYYADSVKGRFTISRDNAKNTVYLQMNSLKPEDTAVYYCAAQRGAPVDGKSDYWGQGTQVIVSS,low polyreactivity
10,QVQLVESGGGLVQAGGSLRLSCAASGSIFEYYAMGWYRQAPGKERELVAAISSGGPTYYADSVKGRFTISRDNAKNTVYLQMNSLKPEDTAVYYCNADLWYPDYDYWGQGTQLTVSS,low polyreactivity
11,QVQLVESGGGLVQAGGSLRLSCAASGSIFEYYTMGWYIPAPGKERECVAAITFTGDSTYYADSVKGRFTISRDNAKNTVFLQMNSLKPEDTAVYYCNADSVTYDGEYDYWGQGTQVTVSS,low polyreactivity
12,QVQLVESGGGLVQAGGSLRLSCAASGSIFFARYAMGWYRQAPGKERELVAAITRATSTTYADSVKGRFTISRDNAKNTVYLQMNSLKPEDTAVYYCAATKIGGGSFRPYYYWGQGTQVTVSS,high polyreactivity
13,QVQLVESGGGLVQAGGSLRLSCAASGSIFFDGNAMGWYRQAPGKERELVAAISVSGGSTYYADSVKGRFTISRDYAKTTVYLQINRLKPEDTAVYDCAKYPSKSYVPGDYWGQGTQVTVSS,low polyreactivity
14,QVQLVESGGGLVQAGGSLRLSCAASGSIFFFNAMGWSRQAPGKERELVATISDTTDTDYADSVKGRFTISRENGKNTVYLQMNSLKPEDTAVYYCAKVKAWTEYYYWGQGTQVTVSS,low polyreactivity
15,QVQLVESGGGLVQAGGSLRLSCAASGSIFFFYVMGWYRPAPGKERELVAAITYSGGSTFYADSVKGRFTISRDNAKNTVYLQMNSLKPEDTAVYYCAADYGQWTPLDPYNHWGQGTQVTVSS,low polyreactivity
16,QVQLVESGGGLVQAGGSLRLSCAASGSIFFFYVMGWYRQAPGKERELVAAINNGGSTNYADSVKGRFTISRDNAKNTVYLQMNSLKPEDTAVYYCAADSITSKNQGLDYDYWGQGTQVTVSS,low polyreactivity
17,QVQLVESGGGLVQAGGSLRLSCAASGSIFFGYAMGWYRPAPGKERELVAAISSDGSTYYADSVKGRFTISRDNAKNTVYLQMNSLKPEDTAVYYCNAEQAIFYWYATVTYDYWGQGTQVTVSS,low polyreactivity
18,QVQLVESGGGLVQAGGSLRLSCAASGSIFFIYAMGWYRQAPGTERELVATITSGGSTYYADSVKGRFTISRDNAKNTVYLQMNSLKPEDTAVYYCAVDEYYAFDYWGQGTQVTVSS,low polyreactivity
19,QVQLVESGGGLVQAGGSLRLSCAASGSIFFKYAMGWYRQAPGKERELVASITRGGRTYYADSVKGRFTISRDNAKNTVYLQMNSLKPEDTAVYYCNKRTVWKHDYWGQGTQVTVSS,high polyreactivity
20,QVQLVESGGGLVQAGGSLRLSCAASGSIFFLYAMGWSRQAPGKEWELVAAISRTGSTYADSVKGRFTISRDNAKNTVYLQMNSLKPEDTAVYYCADEYRYYWYGTMNYWGQGTQVTVSS,low polyreactivity
